T1: SPRTN-EQ (catalytically inactive) (UniProt Q9H040 1-489, E112Q)
T1 sequence: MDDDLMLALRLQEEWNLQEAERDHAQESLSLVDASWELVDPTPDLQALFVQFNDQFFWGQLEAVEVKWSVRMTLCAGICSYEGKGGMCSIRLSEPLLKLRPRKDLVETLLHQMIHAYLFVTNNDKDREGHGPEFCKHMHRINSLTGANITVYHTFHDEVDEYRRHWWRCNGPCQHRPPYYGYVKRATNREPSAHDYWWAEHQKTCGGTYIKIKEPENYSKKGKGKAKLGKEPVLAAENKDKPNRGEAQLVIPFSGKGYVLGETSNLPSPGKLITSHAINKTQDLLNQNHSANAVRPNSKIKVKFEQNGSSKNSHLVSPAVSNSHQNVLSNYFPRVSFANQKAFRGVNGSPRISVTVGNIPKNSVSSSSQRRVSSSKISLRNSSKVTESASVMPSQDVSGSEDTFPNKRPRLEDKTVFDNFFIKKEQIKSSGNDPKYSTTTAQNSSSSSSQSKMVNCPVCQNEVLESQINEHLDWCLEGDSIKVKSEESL

B1: Junction-DPC (substrate e) (mixed)
DNA 1: CCCAAAAAAAAAAATAAAAAAAAAAAACCC
DNA 2: GGGTTTTTTTTTTTT
modifications: dT15 of strand 1 covalently conjugated to protein G; strand 1 3'-phosphate
B2: dsDPC (substrate f) (dsDNA)
DNA 1: B1 DNA 1
DNA 2: GGGTTTTTTTTTTTTATTTTTTTTTTTGGG
modifications: dT15 of strand 1 covalently conjugated to protein G; strand 1 3'-phosphate

Molecular target: T1, SPRTN-EQ (catalytically inactive)
Assay: EMSA

| Binder | binding result |
| --- | --- |
| B1 | binds |
| B2 | binds |
